Where two headings read alike, the source gives them in different places.
Legend:
[1] = biological target: T1, p300CH1, CH1 domain of human p300 (residues 323–424), untagged (human, UniProt Q09472 323-424); test: AUC
[2] = biological target: T1, p300CH1, CH1 domain of human p300 …; test: pull-down
[3] = biological target: T1, p300CH1, CH1 domain of human p300 …; test: AUC; remark: listed apart in the source
[4] = biological target: T2, untagged HPV16-E7_(1–98) (human papillomavirus 16 (HPV16)), P03129; test: AUC; details: remark: other sources report otherwise
T2 chain: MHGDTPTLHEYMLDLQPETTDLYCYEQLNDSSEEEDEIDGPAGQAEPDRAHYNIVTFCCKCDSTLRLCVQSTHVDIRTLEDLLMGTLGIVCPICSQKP

T1 sequence (Q09472 323-424): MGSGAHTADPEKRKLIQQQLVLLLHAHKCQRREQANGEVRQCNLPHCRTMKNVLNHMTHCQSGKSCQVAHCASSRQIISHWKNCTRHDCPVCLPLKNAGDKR

B1: untagged HPV16-E7_(1–51) (domain or fragment)
chain: MHGDTPTLHEYMLDLQPETTDLYCYEQLNDSSEEEDEIDGPAGQAEPDRAH
[1]
  stoichiometry N: 1

## MHGDTPTLHEYMLDLQPETTDLYCYEQLNDSSEEEDEIDGPAGQAE (domain or fragment) [GST-HPV16-E7_(1–46)]
[2]
  binding result: binds

B2: 6xHis-Ad5-E1A_(1–138) (domain or fragment)
chain: MRHIICHGGVITEEMAASLLDQLIEEVLADNLPPPSHFEPPTLHELYDLDVTAPEDPNEEAVSQIFPDSVMLAVQEGIDLLTFPPAPGSPEPPHLSRQPEQPEQRALGPVSMPNLVPEVIDLTCHEAGFPPSDDEDEE
[3]
  stoichiometry N: 1

B3: 6xHis-Ad5-E1A_(1–189) (domain or fragment)
chain: MRHIICHGGVITEEMAASLLDQLIEEVLADNLPPPSHFEPPTLHELYDLDVTAPEDPNEEAVSQIFPDSVMLAVQEGIDLLTFPPAPGSPEPPHLSRQPEQPEQRALGPVSMPNLVPEVIDLTCHEAGFPPSDDEDEEGEEFVLDYVEHPGHGCRSCHYHRRNTGDPDIMCSLCYMRTCGMFVYSPVSE
[3]
  stoichiometry N: 1

B4: untagged Ad5-E1A_(1–77) (domain or fragment)
chain: MRHIICHGGVITEEMAASLLDQLIEEVLADNLPPPSHFEPPTLHELYDLDVTAPEDPNEEAVSQIFPDSVMLAVQEG
[3]
  stoichiometry N: 1

B5: untagged HPV16-E7_(1–98) (natural protein)
chain: T2 chain
[1]
  stoichiometry N: 1
[4]
  stoichiometry N: 2

From paper PMC3521592 (Biochemistry, 2012)
